From PMC4758095

B1: MARCO: N83Q-136Q (protein)
parent chain: MRNKKILKEDELLSETQQAAFHQIAMEPFEINVPKPKRRNGVNFSLAVVVIYLILLTAGAGLLVVQVLNLQARLRVLEMYFLNDTLAAEDSPSFSLLQSAHPGEHLAQGASRLQVLQAQLTWVRVSHEHLLQRVDNFTQNPGMFRIKGEQGAPGLQGHKGAMGMPGAPGPPGPPAEKGAKGAMGRDGATGPSGPQGPPGVKGEAGLQGPQGAPGKQGATGTPGPQGEKGSKGDGGLIGPKGETGTKGEKGDLGLPGSKGDRGMKGDAGVMGPPGAQGSKGDFGRPGPPGLAGFPGAKGDQGQPGLQGVPGPPGAVGHPGAKGEPGSAGSPGRAGLPGSPGSPGATGLKGSKGDTGLQGQQGRKGESGVPGPAGVKGEQGSPGLAGPKGAPGQAGQKGDQGVKGSSGEQGVKGEKGERGENSVSVRIVGSSNRGRAEVYYSGTWGTICDDEWQNSDAIVFCRMLGYSKGRALYKVGAGTGQIWLDNVQCRGTESTLWSCTKNSWGHHDCSHEEDAGVECSV
B2: SR-AI (scavenger receptor A type I): N143Q-N184Q (protein)
parent chain: MEQWDHFHNQQEDTDSCSESVKFDARSMTALLPPNPKNSPSLQEKLKSFKAALIALYLLVFAVLIPLIGIVAAQLLKWETKNCSVSSTNANDITQSLTGKGNDSEEEMRFQEVFMEHMSNMEKRIQHILDMEANLMDTEHFQNFSMTTDQRFNDILLQLSTLFSSVQGHGNAIDEISKSLISLNTTLLDLQLNIENLNGKIQENTFKQQEEISKLEERVYNVSAEIMAMKEEQVHLEQEIKGEVKVLNNITNDLRLKDWEHSQTLRNITLIQGPPGPPGEKGDRGPTGESGPRGFPGPIGPPGLKGDRGAIGFPGSRGLPGYAGRPGNSGPKGQKGEKGSGNTLTPFTKVRLVGGSGPHEGRVEILHSGQWGTICDDRWEVRVGQVVCRSLGYPGVQAVHKAAHFGQGTGPIWLNEVFCFGRESSIEECKIRQWGTRACSHSEDAGVTCTL
B3: SR-AI (scavenger receptor A type I): N102Q (protein)
parent chain: B2 parent chain
B4: SR-AI (scavenger receptor A type I): N102Q-N143Q (protein)
parent chain: B2 parent chain
B5: SR-AI (scavenger receptor A type I): N143Q (protein)
parent chain: B2 parent chain
B6: SR-AI (scavenger receptor A type I): N82Q (protein)
parent chain: B2 parent chain
B7: SR-AI (scavenger receptor A type I): N221Q (protein)
parent chain: B2 parent chain
B8: SR-AI (scavenger receptor A type I): N184Q (protein)
parent chain: B2 parent chain
B9: SR-AI (scavenger receptor A type I): N267Q (protein)
parent chain: B2 parent chain
B10: SR-AI (scavenger receptor A type I): N249Q (protein)
parent chain: B2 parent chain
B11: SR-AI (scavenger receptor A type I): N102Q-N184Q (protein)
parent chain: B2 parent chain

Experiment: not described (stated in discussion only)
Settings: glycan lost; control: wild type MARCO

Protein	localisation_or_trafficking
B1	abolishes

Experiment: live immunostaining; surface biotinylation pull-down
Settings: glycan lost; control: wild type SR-AI

Protein	localisation_or_trafficking
B2	no change
B3	no change
B4	no change
B5	no change
B6	no change
B7	no change
B8	no change
B9	no change
B10	no change

Experiment: FAM-oAβ uptake, confocal fluorescence quantification, COS-7
Settings: glycan lost; control: wild type SR-AI

Protein	other: ligand internalisation
B2	decreases
B3	no change
B11	no change
B4	decreases
B5	no change
B6	no change
B7	no change
B8	no change
B9	no change
B10	no change
